Experimental data as given in the supplement of paper PMC7877785.
± gives the uncertainty stated by the source.

Test: self-splicing fitness, log relative to wild type (ln ratio); higher = more splicing; Tetrahymena group I intron in knt gene, E. coli kanamycin selection, DiMSum; sequences stand for … in CUCUCU…GGAGGGAAAAGUUAUCAGGCAUGCACCUGGUAGCUAGUCUUUAAACCAAUAGAUUGCAUCGGUUUAAAAGGCAAGACCGUCAAAUUGCGGGAAAGGGGUCAACAGCCGUUCAGUACCAAGUCUCAGGGGAAACUUUGAGAUGGCCUUGCAAAGGGUAUGGUAAUAAGCUGACGGACAUGGUCCUAACCACGCAGCCAAGUCCUAAGUCAACAGAUCUUCUGUUGAUAUGGAUGCAGUUCACAGACUAAAUGUCGGUCGGGGAAGAUGUAUUCUUCUCAUAAGAUAUAGUCGGACCUCUCCUUAAUGGGAGCUAGCGGAUGAAGUGAUGCAACACUGGAGCCGCUGGGAACUAAUUUGUAUGCGAAAGUAUAUUGAUUAGUUUUGGAGUACUCGUGGUCG
Method in brief: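 Library with all eight P1ex-region intron nucleotides randomised, intron inside the knt kanamycin-resistance gene on pET-22b(+), in E. coli BL21(DE3). Cells grew overnight at 37°C or 30°C on LB agar with or without 25 μg/mL kanamycin (plus 100 μg/mL carbenicillin, 50 μM IPTG, 0.2% rhamnose), in six replicate transformations. Pooled colonies were amplicon-sequenced on Illumina HiSeq 2500. DiMSum fitness is the error-weighted combination of wild-type-normalised replicate fold changes, kanamycin versus none.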

Row | Sequence | self-splicing fitness (ln) (30 °C) | self-splicing fitness (ln) (37 °C)
1 | CAGAAGCAAUAUUACGCAAG | -2.45 ± 0.098 | -1.21 ± 0.092
2 | CAGAAGCAAUAUUACGCCUA | -0.835 ± 0.12 | -0.744 ± 0.093
3 | CAGAAGCAAUAUUACGCGAA |  | -1.94 ± 0.23
4 | CAGAAGCAAUAUUACGCGUG | -4.79 ± 0.27 | -2.62 ± 0.12
5 | CAGAAGCAAUAUUACGCUAU | -3.4 ± 0.16 | -3.04 ± 0.16
6 | CAGAAGCAAUAUUACGGAUU | -3.13 ± 0.12 | -2.47 ± 0.14
7 | CAGAAGCAAUAUUACGGCGA | -1.43 ± 0.15 | -1.5 ± 0.18
8 | CAGAAGCAAUAUUACGGCGG | -0.0667 ± 0.084 | -0.292 ± 0.12
9 | CAGAAGCAAUAUUACGGGAG | -1.6 ± 0.12 | -0.856 ± 0.12
10 | CAGAAGCAAUAUUACGGGGA | -4.87 ± 0.36 | -1.61 ± 0.11
11 | CAGAAGCAAUAUUACGGGGU | -2.98 ± 0.19 | -2.34 ± 0.21
12 | CAGAAGCAAUAUUACGGUAG | -0.817 ± 0.065 | -0.323 ± 0.08
13 | CAGAAGCAAUAUUACGGUCC | -2.94 ± 0.33 | 
14 | CAGAAGCAAUAUUACGUACG | -0.111 ± 0.089 | 0.665 ± 0.14
15 | CAGAAGCAAUAUUACGUAUC |  | -3.17 ± 0.24
16 | CAGAAGCAAUAUUACGUCAC | -3.02 ± 0.36 | -1.05 ± 0.25
17 | CAGAAGCAAUAUUACGUGCU | -2.7 ± 0.17 | -1.23 ± 0.14
18 | CAGAAGCAAUAUUACGUGGA | -2.71 ± 0.18 | -3.1 ± 0.2
19 | CAGAAGCAAUAUUACGUGUU | -4.1 ± 0.18 | -3.45 ± 0.16
20 | CAGAAGCAAUAUUACGUUAG | -0.919 ± 0.077 | -0.262 ± 0.097
21 | CAGCAGCAAUAUUACGAAAC | -3.65 ± 0.23 | 
22 | CAGCAGCAAUAUUACGACCU | -2.57 ± 0.14 | -1.57 ± 0.12
23 | CAGCAGCAAUAUUACGAGCA | -2.5 ± 0.12 | -1.04 ± 0.093
24 | CAGCAGCAAUAUUACGAUCC | -2.11 ± 0.22 | -2.73 ± 0.4
25 | CAGCAGCAAUAUUACGAUGA | -2.7 ± 0.21 | -1.31 ± 0.14

Row | Sequence | self-splicing fitness (ln) (30 °C) | self-splicing fitness (ln) (37 °C)
26 | CAGCAGCAAUAUUACGAUUC | -3.27 ± 0.25 | -1.78 ± 0.16
27 | CAGCAGCAAUAUUACGCACC | -2.66 ± 0.29 | -1.32 ± 0.47
28 | CAGCAGCAAUAUUACGCAGA | -2.32 ± 0.28 | -1.19 ± 0.13
29 | CAGCAGCAAUAUUACGCAGU | -3.81 ± 0.18 | -3.35 ± 0.22
30 | CAGCAGCAAUAUUACGCAUG | -3.11 ± 0.16 | -2.42 ± 0.16
31 | CAGCAGCAAUAUUACGCCAA | -3.43 ± 0.32 | -1.87 ± 0.17
32 | CAGCAGCAAUAUUACGCCGU | -2.74 ± 0.22 | -2.41 ± 0.28
33 | CAGCAGCAAUAUUACGCUAG | -2.8 ± 0.16 | -2.1 ± 0.21
34 | CAGCAGCAAUAUUACGGAAG | -0.307 ± 0.054 | -0.29 ± 0.068
35 | CAGCAGCAAUAUUACGGAGA | -3.3 ± 0.31 | -3.02 ± 0.22
36 | CAGCAGCAAUAUUACGGAUA | -3.18 ± 0.24 | -2.41 ± 0.17
37 | CAGCAGCAAUAUUACGGGAG | -1.2 ± 0.061 | -0.908 ± 0.082
38 | CAGCAGCAAUAUUACGGUAG | -0.155 ± 0.087 | 0.0584 ± 0.11
39 | CAGCAGCAAUAUUACGGUUC | -2.92 ± 0.26 | -1.5 ± 0.17
40 | CAGCAGCAAUAUUACGUAUG | -2.19 ± 0.1 | -2.5 ± 0.15
41 | CAGCAGCAAUAUUACGUCAA | -2.85 ± 0.21 | -3.37 ± 0.3
42 | CAGCAGCAAUAUUACGUUGG | -1.91 ± 0.072 | -0.788 ± 0.084
43 | CAGGAGCAAUAUUACGACCA |  | -1.27 ± 0.31
44 | CAGGAGCAAUAUUACGAGAU | -3.82 ± 0.29 | -3.8 ± 0.39
45 | CAGGAGCAAUAUUACGAGCU | -3.44 ± 0.47 | -2.52 ± 0.41
46 | CAGGAGCAAUAUUACGAGGA | -3.55 ± 0.25 | -3.69 ± 0.29
47 | CAGGAGCAAUAUUACGAGUA |  | -2.34 ± 0.42
48 | CAGGAGCAAUAUUACGAGUU | -3.36 ± 0.43 | 
49 | CAGGAGCAAUAUUACGAUGA | -1.76 ± 0.41 | 
50 | CAGGAGCAAUAUUACGAUUC |  | -1.93 ± 0.38

Row | Sequence | self-splicing fitness (ln) (30 °C) | self-splicing fitness (ln) (37 °C)
51 | CAGGAGCAAUAUUACGCUGA | -4.15 ± 0.23 | -3.13 ± 0.2
52 | CAGGAGCAAUAUUACGGGAU | -3.55 ± 0.22 | -2.28 ± 0.23
53 | CAGGAGCAAUAUUACGGGCC | -3.76 ± 0.42 | 
54 | CAGGAGCAAUAUUACGGGGG | -2.9 ± 0.19 | -2.4 ± 0.25
55 | CAGGAGCAAUAUUACGGUCG | 0.425 ± 0.084 | 0.544 ± 0.12
56 | CAGGAGCAAUAUUACGGUGA | -2.96 ± 0.22 | -3 ± 0.27
57 | CAGGAGCAAUAUUACGGUUC | -2.71 ± 0.43 | -1.74 ± 0.28
58 | CAGGAGCAAUAUUACGUACU |  | -2.97 ± 0.38
59 | CAGGAGCAAUAUUACGUCAU |  | -1.89 ± 0.33
60 | CAGGAGCAAUAUUACGUCUU | -2.33 ± 0.095 | -2.16 ± 0.11
61 | CAGGAGCAAUAUUACGUGCG | -1.56 ± 0.079 | -0.807 ± 0.088
62 | CAGGAGCAAUAUUACGUGGA | -3.47 ± 0.2 | -3.3 ± 0.26
63 | CAGGAGCAAUAUUACGUGGU | -4.08 ± 0.23 | -3.15 ± 0.23
64 | CAGGAGCAAUAUUACGUUAC | -2.43 ± 0.13 | -3.01 ± 0.21
65 | CAGGAGCAAUAUUACGUUAU | -3.4 ± 0.29 | -2.71 ± 0.3
66 | CAGGAGCAAUAUUACGUUCC | -3.33 ± 0.23 | -2.04 ± 0.27
67 | CAGUAGCAAUAUUACGACCC | -3.52 ± 0.44 | -0.507 ± 0.34
68 | CAGUAGCAAUAUUACGAGGU |  | -2.88 ± 0.34
69 | CAGUAGCAAUAUUACGCACG | -1.27 ± 0.11 | -0.303 ± 0.17
70 | CAGUAGCAAUAUUACGCCCA | -2.16 ± 0.26 | -0.476 ± 0.45
71 | CAGUAGCAAUAUUACGCCCG | 0.504 ± 0.12 | -0.351 ± 0.15
72 | CAGUAGCAAUAUUACGCCUC | -2.93 ± 0.46 | -2.4 ± 0.44
73 | CAGUAGCAAUAUUACGCUCA | -0.118 ± 0.13 | 0.5 ± 0.17
74 | CAGUAGCAAUAUUACGCUCU | -2.44 ± 0.18 | -0.957 ± 0.15
75 | CAGUAGCAAUAUUACGGCGC | -1.59 ± 0.4 | -0.863 ± 0.25

Row | Sequence | self-splicing fitness (ln) (30 °C) | self-splicing fitness (ln) (37 °C)
76 | CAGUAGCAAUAUUACGGCUC | -1.36 ± 0.14 | 0.325 ± 0.16
77 | CAGUAGCAAUAUUACGGGGU | -4.35 ± 0.32 | -2.1 ± 0.22
78 | CAGUAGCAAUAUUACGGGUA | -3.45 ± 0.4 | -1.01 ± 0.18
79 | CAGUAGCAAUAUUACGUAGC | -3.32 ± 0.12 | -3.18 ± 0.17
80 | CAGUAGCAAUAUUACGUCUA | -0.56 ± 0.064 | -0.256 ± 0.071
81 | CAGUAGCAAUAUUACGUCUC | -3.93 ± 0.37 | -2.13 ± 0.27
82 | CAGUAGCAAUAUUACGUUAC | -3.34 ± 0.47 | -2.76 ± 0.3
83 | CAGUAGCAAUAUUACGUUCA | -0.986 ± 0.14 | -2.31 ± 0.23
84 | CAUAAGCAAUAUUACGAAAA |  | -3.32 ± 0.34
85 | CAUAAGCAAUAUUACGAAGG | -1.56 ± 0.11 | -1.55 ± 0.15
86 | CAUAAGCAAUAUUACGAAGU | -3.15 ± 0.17 | -2.75 ± 0.29
87 | CAUAAGCAAUAUUACGACCU | -2.63 ± 0.28 | -1.62 ± 0.33
88 | CAUAAGCAAUAUUACGACUC | -3.48 ± 0.34 | -0.925 ± 0.14
89 | CAUAAGCAAUAUUACGAGCG | 0.0605 ± 0.064 | 0.0464 ± 0.088
90 | CAUAAGCAAUAUUACGAGGC | -3.54 ± 0.35 | -2.24 ± 0.35
91 | CAUAAGCAAUAUUACGAGGG | -2.96 ± 0.17 | -2.53 ± 0.28
92 | CAUAAGCAAUAUUACGAUCU | -2.67 ± 0.23 | -1.85 ± 0.24
93 | CAUAAGCAAUAUUACGCACA | -2.05 ± 0.12 | -0.312 ± 0.11
94 | CAUAAGCAAUAUUACGCAGG | -1.84 ± 0.18 | -1.22 ± 0.18
95 | CAUAAGCAAUAUUACGCCAA | -2.33 ± 0.17 | -2.69 ± 0.32
96 | CAUAAGCAAUAUUACGCCAC | -2.8 ± 0.37 | -2.59 ± 0.39
97 | CAUAAGCAAUAUUACGCGUC | -3.98 ± 0.26 | -2.15 ± 0.2
98 | CAUAAGCAAUAUUACGCUCC | -2.87 ± 0.23 | -0.216 ± 0.49
99 | CAUAAGCAAUAUUACGCUCG | -0.821 ± 0.11 | -0.252 ± 0.12
